Assay results: IntAct's records for PubMed 21763699

B1: Caskin-1 (Homo sapiens), Q8WXD9 (parent)
chain: MGKEQELVQAVKAEDVGTAQRLLQRPRPGKAKLLGSTKKINVNFQDPDGFSALHHAALNGNTELISLLLEAQAAVDIKDNKGMRPLHYAAWQGRKEPMKLVLKAGSAVNIPSDEGHIPLHLAAQHGHYDVSEMLLQHQSNPCMVDNSGKTPLDLACEFGRVGVVQLLLSSNMCAALLEPRPGDATDPNGTSPLHLAAKNGHIDIIRLLLQAGIDINRQTKSGTALHEAALCGKTEVVRLLLDSGINAHVRNTYSQTALDIVHQFTTSQASREIKQLLREASAALQVRATKDYCNNYDLTSLNVKAGDIITVLEQHPDGRWKGCIHDNRTGNDRVGYFPSSLGEAIVKRAGSRAGTEPSLPQGSSSSGPSAPPEEIWVLRKPFAGGDRSGSISGMAGGRGSGGHALHAGSEGVKLLATVLSQKSVSESGPGDSPAKPPEGSAGVARSQPPVAHAGQVYGEQPPKKLEPASEGKSSEAVSQWLTAFQLQLYAPNFISAGYDLPTISRMTPEDLTAIGVTKPGHRKKIAAEISGLSIPDWLPEHKPANLAVWLSMIGLAQYYKVLVDNGYENIDFITDITWEDLQEIGITKLGHQKKLMLAVRKLAELQKAEYAKYEGGPLRRKAPQSLEVMAIESPPPPEPTPADCQSPKMTTFQDSELSDELQAAMTGPAEVGPTTEKPSSHLPPTPRATTRQDSSLGGRARHMSSSQELLGDGPPGPSSPMSRSQEYLLDEGPAPGTPPREARPGRHGHSIKRASVPPVPGKPRQVLPPGTSHFTPPQTPTKTRPGSPQALGGPHGPAPATAKVKPTPQLLPPTERPMSPRSLPQSPTHRGFAYVLPQPVEGEVGPAAPGPAPPPVPTAVPTLCLPPEADAEPGRPKKRAHSLNRYAASDSEPERDELLVPAAAGPYATVQRRVGRSHSVRAPAGADKNVNRSQSFAVRPRKKGPPPPPPKRSSSALASANLADEPVPDAEPEDGLLGVRAQCRRASDLAGSVDTGSAGSVKSIAAMLELSSIGGGGRAARRPPEGHPTPRPASPEPGRVATVLASVKHKEAIGPGGEVVNRRRTLSGPVTGLLATARRGPGESADPGPFVEDGTGRQRPRGPSKGEAGVEGPPLAKVEASATLKRRIRAKQNQQENVKFILTESDTVKRRPKAKEREAGPEPPPPLSVYHNGTGTVRRRPASEQAGPPELPPPPPPAEPPPTDLAHLPPLPPPEGEARKPAKPPVSPKPVLTQPVPKLQGSPTPTSKKVPLPGPGSPEVKRAHGTPPPVSPKPPPPPTAPKPVKAVAGLPSGSAGPSPAPSPARQPPAALAKPPGTPPSLGASPAKPPSPGAPALHVPAKPPRAAAAAAAAAAAPPAPPEGASPGDSARQKLEETSACLAAALQAVEEKIRQEDAQGPRDSAAEKSTGSILDDIGSMFDDLADQLDAMLE
B2: Peripheral plasma membrane protein CASK (Homo sapiens), O14936 (parent)
chain: MADDDVLFEDVYELCEVIGKGPFSVVRRCINRETGQQFAVKIVDVAKFTSSPGLSTEDLKREASICHMLKHPHIVELLETYSSDGMLYMVFEFMDGADLCFEIVKRADAGFVYSEAVASHYMRQILEALRYCHDNNIIHRDVKPHCVLLASKENSAPVKLGGFGVAIQLGESGLVAGGRVGTPHFMAPEVVKREPYGKPVDVWGCGVILFILLSGCLPFYGTKERLFEGIIKGKYKMNPRQWSHISESAKDLVRRMLMLDPAERITVYEALNHPWLKERDRYAYKIHLPETVEQLRKFNARRKLKGAVLAAVSSHKFNSFYGDPPEELPDFSEDPTSSGLLAAERAVSQVLDSLEEIHALTDCSEKDLDFLHSVFQDQHLHTLLDLYDKINTKSSPQIRNPPSDAVQRAKEVLEEISCYPENNDAKELKRILTQPHFMALLQTHDVVAHEVYSDEALRVTPPPTSPYLNGDSPESANGDMDMENVTRVRLVQFQKNTDEPMGITLKMNELNHCIVARIMHGGMIHRQGTLHVGDEIREINGISVANQTVEQLQKMLREMRGSITFKIVPSYRTQSSSCERDSPSTSRQSPANGHSSTNNSVSDLPSTTQPKGRQIYVRAQFEYDPAKDDLIPCKEAGIRFRVGDIIQIISKDDHNWWQGKLENSKNGTAGLIPSPELQEWRVACIAMEKTKQEQQASCTWFGKKKKQYKDKYLAKHNAVFDQLDLVTYEEVVKLPAFKRKTLVLLGAHGVGRRHIKNTLITKHPDRFAYPIPHTTRPPKKDEENGKNYYFVSHDQMMQDISNNEYLEYGSHEDAMYGTKLETIRKIHEQGLIAILDVEPQALKVLRTAEFAPFVVFIAAPTITPGLNEDESLQRLQKESDILQRTYAHYFDLTIINNEIDETIRHLEEAVELVCTAPQWVPVSWVY
partner: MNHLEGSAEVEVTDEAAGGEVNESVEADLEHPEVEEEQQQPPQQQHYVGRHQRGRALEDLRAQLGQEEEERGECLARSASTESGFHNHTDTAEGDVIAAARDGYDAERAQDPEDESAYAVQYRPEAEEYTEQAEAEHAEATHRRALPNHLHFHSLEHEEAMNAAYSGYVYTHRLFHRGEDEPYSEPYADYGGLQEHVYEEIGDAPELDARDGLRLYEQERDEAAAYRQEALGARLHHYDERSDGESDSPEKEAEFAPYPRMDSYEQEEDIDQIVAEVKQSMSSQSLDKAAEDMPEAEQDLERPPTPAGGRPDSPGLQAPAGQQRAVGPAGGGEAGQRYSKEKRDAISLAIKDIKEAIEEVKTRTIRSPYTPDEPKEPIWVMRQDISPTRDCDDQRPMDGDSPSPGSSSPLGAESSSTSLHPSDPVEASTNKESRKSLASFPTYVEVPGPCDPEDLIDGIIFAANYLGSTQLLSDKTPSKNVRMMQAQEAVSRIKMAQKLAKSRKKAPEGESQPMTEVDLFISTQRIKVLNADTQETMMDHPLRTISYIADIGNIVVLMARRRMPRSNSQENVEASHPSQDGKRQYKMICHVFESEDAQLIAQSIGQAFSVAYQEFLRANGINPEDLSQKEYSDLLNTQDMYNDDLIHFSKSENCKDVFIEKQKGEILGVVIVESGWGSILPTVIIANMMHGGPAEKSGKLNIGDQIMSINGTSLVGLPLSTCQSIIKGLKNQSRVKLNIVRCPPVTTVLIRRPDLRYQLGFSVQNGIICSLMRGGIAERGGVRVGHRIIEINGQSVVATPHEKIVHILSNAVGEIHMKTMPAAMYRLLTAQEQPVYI
B3: Peripheral plasma membrane protein CASK (Homo sapiens), O14936 (parent)
chain: B2 chain

Variants of: B1
Details: with cskp_human CASK, O14936

Row | effect of a mutation on the interaction | Variant
1 | decreasing interaction | R379A
2 | disrupting interaction | I375A
3 | disrupting interaction | W376A
4 | decreasing interaction | V377A

Variants of: B1
Details: with cskp_human CASK

Row | effect of a mutation on the interaction | Variant
5 | disrupting interaction | L378A;R379A;K380A
6 | disrupting interaction | I375A;W376A;V377A

Variants of: B2
Details: with apba1_human APBA1, Q02410

Row | effect of a mutation on the interaction | Variant
7 | disrupting interaction | V117Q
8 | disrupting interaction | V117D

Variants of: B3
Details: with tiam1_human TIAM1, Q13009
Sequence of tiam1_human TIAM1, Q13009 (Q13009 whole entry): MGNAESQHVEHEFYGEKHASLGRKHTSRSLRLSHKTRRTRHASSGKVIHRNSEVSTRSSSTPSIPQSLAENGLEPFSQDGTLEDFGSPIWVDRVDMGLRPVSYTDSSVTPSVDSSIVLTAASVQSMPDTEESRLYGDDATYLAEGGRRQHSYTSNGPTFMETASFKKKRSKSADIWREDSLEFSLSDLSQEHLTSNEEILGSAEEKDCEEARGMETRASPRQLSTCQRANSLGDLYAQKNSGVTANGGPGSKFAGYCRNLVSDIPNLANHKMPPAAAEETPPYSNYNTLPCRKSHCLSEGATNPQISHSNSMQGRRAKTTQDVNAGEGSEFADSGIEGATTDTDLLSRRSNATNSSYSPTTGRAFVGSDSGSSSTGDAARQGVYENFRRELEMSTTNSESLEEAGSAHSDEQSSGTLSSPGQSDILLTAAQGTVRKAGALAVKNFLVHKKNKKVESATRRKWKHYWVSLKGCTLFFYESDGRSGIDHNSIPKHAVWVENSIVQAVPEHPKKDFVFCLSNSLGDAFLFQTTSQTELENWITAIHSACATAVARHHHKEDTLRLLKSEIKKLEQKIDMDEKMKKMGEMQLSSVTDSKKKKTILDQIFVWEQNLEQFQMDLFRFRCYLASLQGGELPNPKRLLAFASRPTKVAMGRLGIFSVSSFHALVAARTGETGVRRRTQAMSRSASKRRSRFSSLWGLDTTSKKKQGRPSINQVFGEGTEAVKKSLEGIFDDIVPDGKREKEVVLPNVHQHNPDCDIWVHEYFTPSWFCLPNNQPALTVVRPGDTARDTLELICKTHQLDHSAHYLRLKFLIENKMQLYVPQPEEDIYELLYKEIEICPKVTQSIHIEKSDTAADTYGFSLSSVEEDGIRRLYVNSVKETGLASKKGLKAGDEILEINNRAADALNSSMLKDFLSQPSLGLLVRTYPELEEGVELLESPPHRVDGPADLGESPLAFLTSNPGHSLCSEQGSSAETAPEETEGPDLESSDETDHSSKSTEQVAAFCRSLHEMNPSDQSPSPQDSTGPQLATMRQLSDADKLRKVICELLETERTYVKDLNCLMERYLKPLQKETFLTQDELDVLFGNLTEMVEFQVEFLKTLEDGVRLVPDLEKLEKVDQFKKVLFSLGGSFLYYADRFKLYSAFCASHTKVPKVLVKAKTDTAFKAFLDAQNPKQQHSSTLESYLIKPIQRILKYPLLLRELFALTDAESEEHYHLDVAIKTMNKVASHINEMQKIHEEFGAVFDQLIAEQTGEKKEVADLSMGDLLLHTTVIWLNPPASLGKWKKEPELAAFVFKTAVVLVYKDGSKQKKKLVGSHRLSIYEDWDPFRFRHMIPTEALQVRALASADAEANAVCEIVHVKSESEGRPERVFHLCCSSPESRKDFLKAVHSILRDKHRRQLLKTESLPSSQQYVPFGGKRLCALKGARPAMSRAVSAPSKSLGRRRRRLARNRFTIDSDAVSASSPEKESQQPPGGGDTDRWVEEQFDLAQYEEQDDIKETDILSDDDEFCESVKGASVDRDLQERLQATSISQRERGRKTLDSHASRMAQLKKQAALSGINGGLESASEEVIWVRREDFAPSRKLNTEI

Row | effect of a mutation on the interaction | Variant
9 | disrupting interaction | V117D
10 | disrupting interaction | V117Q

Variants of: B3
Details: with cski1_human CASKIN1, Q8WXD9

Row | effect of a mutation on the interaction | Variant
11 | disrupting interaction | V117D
12 | disrupting interaction | V117Q
